{"source": "patent US20220098328A1", "about": "“ANTIBODIES TO M(H)DM2/4 AND THEIR USE IN DIAGNOSING AND TREATING CANCER” (NomoCan Pharmaceuticals LLC, priority 2017, published 2022)", "molecules": {"B1": {"name": "NMC-103: mouse monoclonal antibody of the IgG1 isotype that binds to NMC-P1 (SEQ ID NO:1); VH SEQ ID NO:36, VL SEQ ID NO:37 (antibody, V domains shown)", "VH": "EVQLQESGGGLVQPGGSLRLSCTTSGFTFTHYYMSWVRQPPGKALEWLGFIRNKAKGYTAEYSASVKGRFTISRDNSQSILYLQMNTLRPEDSATYYCARDIGDNWGQGTLVTVSS", "VL": "DIVMTQAAFSNPVTLGTSASISCRSSKNLLHSNGITYLYWYLQRPGQSPQLLISRVSNLASGVPNRFSGSESGTDFTLRISRVEAEDVGVYFCAQLLELPYTFGGGTKLEIK", "modifications": "mAb NMC-103 Heavy Chain Variable Region; mAb NMC-103 Light Chain Variable Region"}, "B2": {"name": "NMC-204: mouse monoclonal antibody of the IgG3 isotype that binds to NMC-P2 (SEQ ID NO:2); VH SEQ ID NO:38, VL SEQ ID NO:39 (antibody, V domains shown)", "VH": "EVQLQESGSVLVRPGASVKLSCKASGDTLSGSWMHWAMQRPGQGLEWIGEIHLNRGTTNYNEKFKGKATVTVDTSSSTAYVDLSSLTSEDSAVYYCARSPGFAYWGQGTLVTVSA", "VL": "GIVMTQAAPSVPVTPGESVSISCRSSKSLLHSNGNSYLYWFLQRPGQSPQLLIYRMSNLASGVPDRFSGSGSGTAFTLRITRVEAEDVGVYYCMQHLEYPFTFGSGTKLEIK", "modifications": "mAb NMC-204 Heavy Chain Variable Region; mAb NMC-204 Light Chain Variable Region"}, "B3": {"name": "NMC-H103 (VH4/VK3): humanized NMC-103 variant, human IgG1, VH4 (SEQ ID NO:299) and VK3 (SEQ ID NO:297) (antibody, V domains shown)", "VH": "B1 VH with Q5V, G16P, P40A, A44G, Q78K, I80T, T87S, P90A, S93T, T95V", "VL": "B1 VL with A7T, A8P, F9L, N11S, T17Q, S18P, R44K, N65D, R79K, L109V", "modifications": "human IgG1 constant regions lacking entries; mAb NMC-H103.VH4Heavy Chain Variable Region; mAb NMC-H103.VK3Light Chain Variable Region"}}, "key": {"[1]": {"system": "mouse pancreatic cancer Panc-2 cells", "experiment": "Panc-2 syngeneic mouse model of pancreatic cancer", "format": "in vivo", "description": "Methodology used (Syngeneic Mouse Models of lung, colon and pancreatic cancer): To investigate the anti-tumor effects of HDM2-specific antibodies on lung, colon and pancreatic tumors in vivo, three well-known syngeneic mouse models of lung, colon and pancreatic cancer were used (Sharma et al., 1999, J. Immunol. 163 (9):5020-5028; McIntyre, 2015, Bioassays 37(8):909-920; Li, et al., 2015, Sci. Rep. 5:7856). Subcutaneous tumors were prepared by implanting either mouse Lewis Lung cancer LL/2 cells (2.5×10^5 cells/mouse), mouse colon cancer MC-38 cells (5×10^5 cells/mouse) or mouse pancreatic cancer Panc-2 cells (2×10^6 cells/mouse) in the right flanks of 8-week-old female C57BL/6 mice (n=6-7). The mice were returned to their respective cages after tumor implantation. From day 7 after tumor implantation, the tumor volumes were measured 2 times/week with a digital caliper. In the case of MC-38 and Panc-2 study, treatment started when the tumors reached an average of 70-80 mm^3. In the case of LL/2 study, tumor cell inoculation and treatment were initiated simultaneously. Mice were micro-chipped and registered following tumor implantation. Tumor volume measurements and body weights were recorded and mice were randomized into groups that received: A) mAb NMC-103 at 0.4 mg/kg (3 times a week for 3 weeks), 2 mg/kg (2 times a week for 3 weeks), or 4 mg/kg (2 times a week for 3 weeks); B) NMC-204 at 0.4 mg/kg (3 times a week for 3 weeks); C) isotype control mouse IgG1 (Abcam, Cat. No. ab18447) or IgG3 (Abcam, Cat. No. ab18392) at 0.4 mg/kg (3 times a week for 3 weeks) or 4 mg/kg (2 times a week for 3 weeks); D) Gemcitabine (25 mg/kg) and nab-paclitaxel (5 mg/kg) 2 times a week for 3 weeks; or E) a combination of gemcitabine (25 mg/kg), nab-paclitaxel (5 mg/kg) and mAb NMC-103 (2 mg/kg; 2 times a week for 3 weeks) or (10 mg/kg; 2 times a week for 2 weeks). All tumors were injected subcutaneously and all treatments were performed by intraperitoneal injection. Any mouse displaying prolonged adverse clinical signs, or with body weight loss exceeding 15% relative to body weight at day 0, was euthanized. Tumor measurements from post-treatment with HDM2-specific antibodies versus isotype control mouse antibodies versus standard of care treatment (gemcitabine and nab-paclitaxel) were made, and results are presented in FIGS. 16-19.\nThe anti-tumor efficacy of NMC-103 and of its combination with pancreatic cancer standard of care treatment Gemcitabine (G) and nab-Paclitaxel (nP) was further evaluated in vivo utilizing the Panc-2 syngeneic mouse model of pancreatic cancer discussed above. In this Panc-2 study, treatment started after Panc-2 cell inoculation and when the tumors reached 80-100 mm^3, with mAb NMC-103 administered at 10 mg/kg, two times a week in a larger number of mice (n=8/group) than that used for the study of FIG. 19.\nEvaluation of anti-tumor effects of antibody OP145 on pancreatic tumor growth in vivo: Subcutaneous tumors were prepared by implanting Panc02 cells (2×10^6 per mouse) in the right flanks of female 8-week-old C57BL/6 mice. The mice were returned to their respective cages after tumor implantation. From day 7 after tumor implantation, the tumor volumes were measured 2 times/week with a digital caliper. Treatment started when the tumors reached an average of 200 mm^3 (see FIG. 26, day 14). Mice were micro-chipped and registered following tumor implantation. Tumor volume measurements and body weights were recorded and mice were randomized into two groups that received either OP145 antibody (by intra-tumoral injection of 0.1 mg/kg of mouse monoclonal antibody OP145, 3 times per week) or PBS. Three mice were treated with OP145, and five mice were treated with PBS. Any mouse displaying prolonged adverse clinical signs, or with body weight loss exceeding 15% from Day 0 body weight, was euthanized. Tumor measurements from the first 10 days post treatment with OP145 antibody versus PBS were made, and results are represented in FIG. 26. […]"}, "[2]": {"target": "NMC-P3 peptide (SEQ ID NO:3), amino acids 475-491 of HDM2 (Homo sapiens, UniProt Q00987)", "experiment": "Peptide-ELISA", "format": "binding", "details": "5 μg/ml peptide on plate, OD 450 nm", "description": "Peptide-ELISA Methodology: 5 μg/ml of NMC-P1, NMC-P2 or NMC-P3 peptide antigen was dried onto a 96-well ELISA plate overnight. Plates were then blocked with 5% BSA in 1× phosphate-buffered saline (PBS) (100 μl/well) for 2 hours at room temperature. Microplate wells were then washed 5 times with 300 μl of ice cold 1×PBS. Appropriate dilutions of monoclonal antibodies NMC-103, NMC-204 or NMC-303 in 1% bovine serum albumin (BSA) in PBS solution were then incubated with their corresponding peptides (NMC-P1, NMC-P2 or NMC-P3, respectively) at room temperature. After 2 hours, wells were washed 5 times with 300 μl ice-cold PBS/well and 100 μl secondary antibody (HRP-labeled Goat anti-Mouse F(ab′)2 H&L cross-adsorbed secondary antibody (HRP-GaM F(ab′)2), ThermoFisher, Cat. No. A24524) diluted 1:2500 to 1:5000 in PBS-1% BSA solution were added and the incubation continued at room temperature. After 1 hour, the wells were washed again 5 times with 200 μl of ice-cold PBS and 50 μL of the TMB Substrate Solution (1-Step™ Ultra TMB-ELISA, ThermoFisher, Cat. No. 34028) were added to each well and color was allowed to develop for 30 minutes at room temperature. The reaction was stopped by addition of 50 μL of stop solution (ThermoFisher, Cat. No. SS04) to each well and absorbance of each well was read immediately for optical density (OD) at 450 nm."}, "OVCAR-3 cells": {"system": "OVCAR-3 cells", "experiment": "Flow cytometry on live (7AAD negative) cells", "format": "cell-based, human", "description": "Cells that had been allowed to grow to about 80% confluency in 75 cm^2 tissue culture flasks were released with either EDTA (10 mmols; pH 7.2; 5 min, 37° C.) or Trypsin (Gibco TrypLE Express), washed several times with ice-cold PBS, and blocked for 20 minutes on ice with 5% human serum albumin in PBS (intact, non-permeabilized cells). After establishing viability, the cell number was adjusted to 10^6 cells/ml and kept in ice-cold PBS until staining. Cells were then incubated with primary antibodies NMC-H103 (VH4/VK3) or NMC-C303 (1 μg/ml) for 30 minutes on ice. Following primary antibody incubation, cells were washed 3 times with ice-cold PBS, followed by incubation with goat anti-human PE labeled secondary antibody (Life technologies H10104) on ice for 20 minutes. Cells were then washed 3 times with PBS and incubated with 7AAD (5 μl/[…] of buffer) before flow cytometry analysis using Fortessa 5."}}, "note": "Numbering of substitutions follows the chain as printed."}
{"molecule": "B1", "values": [{"measurement": "average tumor volume", "setting": "[1]; Panc-2, n=6, start at ~70 mm^3, i.p. 2 times a week for 3 weeks (6th dose day 19), then 2 weeks off, antibody 2 mg/kg, Gemcitabine 25 mg/kg, nab-Paclitaxel 5 mg/kg, by day 35", "result": 1523, "unit": "mm^3"}, {"measurement": "average tumor size / measurement", "setting": "[1]; Panc-02, start at 80-100 mm^3, n=8/group, i.p. 2 times a week for 4 weeks, NMC-103 10 mg/kg, Gemcitabine 25 mg/kg, nab-Paclitaxel 5 mg/kg, by day 34, in NMC-103 groups attributed to scar and inflammation", "result": 230, "unit": "mm^3"}, {"measurement": "tumor size 6 days post single i.p. injection", "setting": "[1]; Panc-2, mice pre-treated with Gemcitabine 25 mg/kg + nab-Paclitaxel 5 mg/kg for 19 days (~450 mm^3), single dose 10 mg/kg, from 438 mm^3", "result": 233, "unit": "mm^3"}, {"measurement": "tumor growth during 4 further weeks without drug treatment", "setting": "[1]; Panc-02 study of FIG. 27, up to 62 days since start", "result": "no sign of tumor growth beyond the initial scar size"}, {"measurement": "Kaplan Meier survival analysis", "setting": "[1]; conditions of FIG. 27, compared to chemotherapy alone or control antibody", "result": "significant survival benefit"}, {"measurement": "tumor 10 days after re-challenge with Panc-2 cells", "setting": "[1]; previously treated mice re-challenged at day 62, 2×10^6 cells s.c. left dorsal flank, no further drug", "result": "no tumor was observed"}]}
{"molecule": "B2", "values": [{"measurement": "binding to NMC-P3 peptide", "setting": "[2]", "result": "did not bind"}]}
{"molecule": "B3", "values": [{"measurement": "binding to live cells briefly treated with trypsin, flow cytometry", "setting": "OVCAR-3 cells; 7AAD negative", "result": "reduced"}, {"measurement": "binding to live (7AAD negative) cells, flow cytometry", "setting": "OVCAR-3 cells; antibody 1 μg/ml", "result": "binding"}]}
